# Assay: soluble on expression in E. coli; label from the status in PepcDB or PDB records
row,Sequence,soluble on expression in E. coli
1,MGSDKIHHHHHHMTSDIKRHIKELISGSENSEVEFKSAKGGLPESFWETFSAFANTNGGIIVLGIKEKNGIFMPDGLNKQQIDTYKKRFWDCAHNKEKVSATMLAERDVYETDIDGNFVLLFRIPRASYDIRPVYLTRNPFGNTFKRNHEGDYHCTDSEIRQMFADAHHATLPFDNQILPNYSMNDIDVATLKGYRQRFMLRKDNHPWNELDDFNFLCKIGAYRVDRENGQEGFTRAGILMFGKTESITDQVCCPWYFVDYQEKLSNNTNERWSDRIYADGSWNANLYQFFFKVYNKLSQTLPAPFLLNGIERTEETSAHIAIREALVNCIVHCNYAEQGNILIVREKDKITFRNPGRMLISVDDFYVGSQSVCRNPIIQKFFIQLGYGEKAGSGADYIVKGAIDNKWHIPALVEHVQPDTVSLYLYLNDANDTSYDANNTSYDANDTSYDANDTSYDANDTSSNEHGQRLTKETLINRVLEICEDWITIDEISEKTGKSRQYLRGRIIPEMLKLGLLEKQYPDASTSPNQKYRKKQ,not soluble
2,MAHHHHHHMLLSVLHAPRQASIAAPLHKVQSCAYAAPDTVSAVLADCLGKDIAPVLRYLTAFATPPVSKPTSHQSHHLAASTRVLRHALVLLLYSFVTTWRGAPPRETPPPPGAIALTREERALALELCRCVAALNESDTGSESIATGERRGDTSAQAHSRDARAEATGSHVTSLEAVTGAQFALVRDALADMLAPDHHSDGSAASTPVRARDSVAGNGPLWRACEAWIAGAVGTAVGASVAPPSSPFAGITGVRMKEEEAVDLLERVNDQLNQIARGGAVNAASRQCGNSAAMP,not soluble
3,MCGLLGMLSSTGQASKYAAAIESALPCMHHRGPDEAGTWHDDHAVFGFNRLSIIDLEHSHQPLRWGPEGEPDRYAMTFNGEIYNYVELRKKLQDLGYTFNTSGDGETIAVGFHHWGADVVLHLRGMFGIAIWDTKEQRLFLARDQFGIKPLYFATTEAGTVFASEKKCILGMADAIGLDLGLDQRAIEHYIDLQYVPEPESLHQHIRRLESGCFAFVSVGGNVEQTRYFRPQFPAQEF,not soluble
4,MVGGVEELSIEQLASSISTYKEQLEQNFVCGLEFRIGEEKLNVRQLLSEDPRNSEYADMEKELKEVIALTEEVLATAKQNEISLSDAGVSAEATPGSPDLEGAWEKTGLRNDPIHEGKFPVGTKVQAVFSDDGEWYDATIEAHTANGYFVAYDEWGNKEEVDPDNVRPIEQNAIVEAERLAQATKNALKRKIEKAASSDYQTKTLPAKLKIDPNDPEDVKIAKRKKIHAFKSKARFEQLEVVQNKKQNDWQQFQTTKAKTKKVGFFTGRKKESIFKSPEDPFGKVGVTGSGKGLTDFQKREKHLHLKSGNAEGTDE,soluble
5,MKQRILIVGAGFAGMWSALSAVRQLDRQGRDDVEVAVLAPQPELRIRPRFYEPDVQRMAAPLGELFAAVGVRFVQGSAQRIDVAGKRVEYRDAEGTLAQLDYDRLVLAAGSGVWRPASVAGIDAAFDVDQLEDALRLEAHLHALRDLPDSPARNTVVVAGGGFTGIETATEMPARLRAILGEKAALRVIVVDRGAAIGASMGADLSGLIAEASAELGVEWCLGRSVAAVDAEGVTLDDGQRIEAKTVVWTVGVRASTLTGQIPGERDAQGRLHVDRNLKVLGLDDVYATGDVARAATDDLGNHALMTCQHAIALGRSAGNNVAADLLGVEPIPYSQVKYVTCLDLGGWGAVFTEGWDRQVRFVREEGKKIKTEINGVWIYPPAADRAVALAAADPLIPVVALEHHHHHH,soluble
6,MSLANLKVNLYGMEFLNPIMTAAGPGAKDGALCQEAAKGGAGAICTKTISVLPADVPRPCMAKTNSGFLNTELWSELPKEQWIEEEYKKVKETGLPVIVSMGYSAEQIAEVAPLVKPYADAVELSTHYVGTDVAPIVNALKAAKAVLDVPVFMKMSPHTDIQTIAKAVEEAGADGLVMINSFGPCMAIDVNTGYPIMGSKAGYGWLSGAPIRPLAIRCIYEASQVVNIPIIGVGGITCGKDVAEMMMAGASAVQVCTEAILKGPSIYGKIAKELNEFLDENGYADVNEIKGLTHKKMAARGFRTHSVAPVVDEGHHHHHH,soluble
7,GPLGSGEEEPLPPRWSMQVAPNGRTFFIDHASRRTTWIDPRNGRAS,soluble
8,MTAPSLDNWEKRKRFVELPRKRQMAFIDTGGPGPVLLMLHGFSDTSRSFSIIEPYFQEYRLIAPDLPGHGASSVGHGFHVADFAETIDRFLTLMGVSRFFVLGHSMGAMTAIELAARRSSSVRGLALISGTLEPDFGTESKLARDILALRDPIKPAGGFLHDWYSCSRPVNEEFLFRMKRDAANMAATTWHGVLKAFAETDLHYSASKINVPVLCLAGSEDPLFDDSHRQQLFEAFPLAQTVTMPGHGHNPHWENPQGVSTLVTEFFAEVMTDASPVRVETAADKR,not soluble
9,SLESYTVNRGKGVTRYDICQLPSNSPIEDDRAEEIVQVPILQDNNIKTSTDWMFFGVFDGHGGWTTSSKLRDQLIGYVINELGTIYKPVQGEENLRYVPNSATIDQAMKNGFLKLDHELVNKNIEKLLTDGNKAKAAELLMPALSGSCALLSFYDTNSQMLKVAVTGDSRAILGSFKDNHWTVRQLSIDQTGANPSEVARIISEHPNEPKVIRNGRVLGSLEPTRAFGDCRYKLPAVIQERIYKQFFGRPLPNQLKSPPYVTAEPIITTTKINPNEHDFLVMASDGLYEMLTNEEIVGLVVKWMEKADMIKPRKSWFGFGSADSKLPEVKDVTNDKALKKPLNNKLGNSFLLEDNNVSTHLIRNALSNGGSREQTSMLISIPNPVSRRYRDDLTVTVVFFGKDTKGEDENGTLEVNWNATAG,soluble
10,MSKRVRSSLILPAVCGLGLAAVLLSSCSSKAPQQPARQAGISGPGDYSRPHRDGAPWWDVDVSRIPDAVPMPHNGSVKANPYTVLGKTYYPMNDARAYRMVGTASWYGTKFHGQATANGETYDLYGMTAAHKTLPLPSYVRVTNLDNGKSVIVRVNDRGPFYSDRVIDLSFAAAKKLGYAETGTARVKVEGIDPVQWWAQRGRPAPMVLAQPKQAVAQAAPAAAQTQAVAMAQPIETYTPPPAQHAAAVLPVQIDSKKNASLPADGLYLQVGAFANPDAAELLKAKLSGVTAAPVFISSVVRNQQILHRVRLGPIGSADEVSRTQDSIRVANLGQPTLVRPD,not soluble
11,YTDYEERRLIHEVPIIVPRGTGKTTLGSAIAEVGQIIDGEWGADIQLLAYSREQAGYLFNASRAMLSNEESLLHYMREADILRSTKQGILYETTNSLMSIKTSDYESLDGTNAHYNIFDEVHTYDDDFIKVVNDGSSRKRKNWITWYISTNGTKRDKLFDKYYNIWVDILDDKIINDSVMPWIYQLDDVSEIHDPDMWQKAMPLLGITTEKETIARDIEMSKNDPAQQAELMAKTFNLPVNNYLAYFSNEECKGWSDKFDESLFVGDDERNARCVIGIDLSDVNDICSISFMVVRGEERHYLNKKFMPRHTIETLPKELRDKYTEWELSGMLHVHELDYNDQAYIFEELRQFMSDNRILPVAVGYDRYNARELIRLFNDYYGDICHDIPQTVKSLSNPLKVYKEKAKMGKIIFDDPVATWNHANVRVKIDANNNIFPNKEKAKEKIDVFASQLDAFICYENFKEDLSYYFD,not soluble
12,MGSDKIHHHHHHMSSNALYTDLSGYYDLMCSDINYQQQSASIHRLHQFLGNNGKQHLDLACGTGPHVRHFIDLGYQCSGLDINQPMLDMAMRRCPEAQFNLQDMTAFYLEERVDLITCFLYSIHYSACIERLKSCIASVHSALNDGGLFCFNTVDKHRIDNTASVKHFAEFDGSHFAFESGWHYSGQGEKQSLKLSIAKSRLPFTEVSASPLPVSDMKGLGSLEAGLHAAGLQEVGLQELHSIEQWQDQHAMVATSFTELQELLAPYFEVHVFEHDYERIVPWDLASGNALFVCVKI,not soluble
13,MKFTSATGSGQQGSSSGTTNSAGNPDSLKQDKVDKSGDSVTVAETTSGDNLTNYTNLPPNLTPTADPNALSFTNKNNAQRAQLFLRALLGSIPVLVNKSGQDDLEHHHHHH,not soluble
14,REGITKNPTKRIIKDVETVDYPEKLIVPYIDTVHDRIVLELFRGCTRGCRFCQAGMIYRPIREKSVKRLKEILDKLVKNTGYDEISLSSLSTSDYSKLSELTDYLVDEYASNNIGISLPSLRLDNFSMEIADKIQQVRKSGLTFAPEAGTQRLRDVINKGVTEEDLENATERAFEMGWNSVKLYFMIGLPTETYEDLDGIAKLAYKV,not soluble
